Test results reported in US20170226155A1.
Where no end group is shown, it is not given here. [ ]: non-standard residue; d: D form. The star is where a group is joined. NMeF = CN[C@@H](Cc1ccccc1)C(=O)O; boroPro = OB(O)[C@@H]1CCCN1*

Target: Dipeptidyl amino peptidase type IV (DPP IV)
Test: cell-based or functional assay

IC50, pH 2 (Tetrapeptide Prodrugs)	IC50 at ten minutes, pH 2	IC50 at ten minutes, pH 8	IC50, pH 8 (Tetrapeptide Prodrugs)	Binder
9 µM	8.6 µM	20 µM	–	GPP[boroPro] [GlyProProboroPro]
20 nM	20 nM	21 nM	21 nM	APV[boroPro] [AlaProValboroPro]
8 mM	8.3 µM	–	–	APP[boroPro] [AlaProProboroPro]
–	15 nM	17 nM	–	YPA[boroPro] [Tyrosine-proline-alanine-proline boronic acid]
–	2 µM	25 µM	–	AAV[boroPro] [AlaAlaValboroPro]
17 nM	17 nM	46 nM	46 nM	GPV[boroPro] [GlyProValboroPro]
10 µM	10 µM	–	–	PPP[boroPro] [ProProProboroPro]
–	2 µM	2.7 µM	–	[NMeF]PA[boroPro] [N-Me-Phe-PRO-ALA-PRO boronic acid]
–	6 nM	8 nM	–	FPA[boroPro] [Phenylalanine-proline-alanine-proline boronic acid]
